# Measurements reported in the nanobody polyreactivity screen of Harvey et al. (2022).
# Test: yeast display, Sf9 membrane polyspecificity reagent, FACS + sequencing; frameworks hold sequencing errors
# In short: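 A nanobody's polyreactivity label depends on the gate it was sorted from. Yeast display cells were stained with 10% biotinylated, detergent-solubilized Sf9 membrane reagent for 1 hour at 4 °C, enriched on streptavidin microbeads and sorted by FACS. The low and high (top ~1%) gates were set on anti-HA fluorescence for expression and streptavidin fluorescence for reagent binding.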
row,Sequence,polyreactivity (PSR sort gate)
1,QVQLVESGGGLVQAGGSLRLSCAASGSTFNKYTMGWYRQAPGKERELVASISSDGSTNYADSVKGRFTISRDNAKNTVYLQMNSLKPEDTAVYYCAADEGTGQASLSSNLYDYWGQGTQVTVSS,low polyreactivity
2,QVQLVESGGGLVQAGGSLRLSCAASGSTFNNNAMGWYRQAPGKERELVAAISYTGGSTYYADSVKGRFTISRDIAKYTVYLQMNSLKPEDSAVYYCARRQARKFYYWGQGTQVTVSS,high polyreactivity
3,QVQLVESGGGLVQAGGSLRLSCAASGSTFNNYAMGWYSQAPGKERELVAAITRGGGSTHYADSVKGRFTISRDNAKKTVYFQMNCRKPEDTAVYYCAVAGFDRGQYVRYYYWGQGTQVTVSS,low polyreactivity
4,QVQLVESGGGLVQAGGSLRLSCAASGSTFNRTPMGWYRQAPGKERELVAGISAGGRTYYTDSVKGRFTISRDNAKNTVYLLMNSLKPEDTAVYDCGTTSWWRCDLHTYLLTHYDYWGQGSQVTVSS,low polyreactivity
5,QVQLVESGGGLVQAGGSLRLSCAASGSTFNRYAMGWYRPAPGKDRELVAAISASGGSTYYADSVKGRFRISRDNAKNTVYLQMNSLKPEDTAVYYCATLHYVGQEHDYWGQGTQVTVSS,low polyreactivity
6,QVQLVESGGGLVQAGGSLRLSCAASGSTFNRYAMGWYRQAPGKERELVAAITSTGGTNYADSVKGRFTISLDNAKNTVYLQMYSLKPEDTAVYYCAKRWLRWRSNYWGQGTQVTVSS,high polyreactivity
7,QVQLVESGGGLVQAGGSLRLSCAASGSTFNSYTMGWSRQAPGEERELVAAITWSGGRTYYADSVKGRFTISRDNAKNTVYLQMNSLKPEATAVYYCAKDRVGEMYYWGQGTQVTVSS,low polyreactivity
8,QVQLVESGGGLVQAGGSLRLSCAASGSTFNSYVMGWYRQAPGQERELVAAITWSGGRTYYADSVKGRFTISRDNAKNTVYLQMNSLKPEDTAVYYCARKKRRGRDWGYDYWGQGTQVTVSS,high polyreactivity
9,QVQLVESGGGLVQAGGSLRLSCAASGSTFNTNAMAWYRHAPGKERELVAAISWSSTRTYYADSVKGRFTISRDNAKNTVYLQMNSLKPEDTAVYYCAAATYQSRYFQRFDYWGQGTQVTVSS,high polyreactivity
10,QVQLVESGGGLVQAGGSLRLSCAASGSTFNTNTMGWYRQAPGKERELVAAISQSGTRTYYANSVKGRFTISRDNAKYTVYFQMNSLKPEDTAVYYCSADRQRYTSSSRKGLGYWGQGTQVTVSS,high polyreactivity
11,QVQLVESGGGLVQAGGSLRLSCAASGSTFNVYSMGWYRQAPGKERELVAAIDTGDGSTFYADSVKGRFTISRDNAKNTVYLQMNSLKPEDTAVYYCAAEFWAIVDGDYCGQGTQVTVSS,high polyreactivity
12,QVQLVESGGGLVQAGGSLRLSCAASGSTFNWYAMGWYRQAPGKERELVASIRISGGSTYYADSVKGRFTISRDNAKNTVYLQMNSLKPEDTAVYYCNAKLFIRWFTYDYWGQGTQVTVSS,low polyreactivity
13,QVQLVESGGGLVQAGGSLRLSCAASGSTFNYNAMGWYRPAPRKERELVAAITWNSGSTYYADSVKGRFTISRDNAKNTVYLQMNSLKQEDTAVYSCAADFTIPYWDAKFDYWGQGTQVTVSS,low polyreactivity
14,QVQLVESGGGLVQAGGSLRLSCAASGSTFNYNAMGWYRQAPGKERELVAAITYSGSSTYYADSVKGRFTISRDNAKNTVYLQMNSLKPEDTAVYYCAKDWYYLRRNYDYWGQGTQVTVSS,high polyreactivity
15,QVQLVESGGGLVQAGGSLRLSCAASGSTFNYYAMGWYRQAPGKERELVAAISSRSSRTFYADSVKGRFTISRDNEKNTVYLQMNSLKPEDTAVYYCAVKKRAPDGDYWGQGTQVTVSS,high polyreactivity
16,QVQLVESGGGLVQAGGSLRLSCAASGSTFNYYDMGWYRQAPGKERELVATITSRGRSTYYADSVKGRFTISRDNAKNTVYLQMNSLKPVDTAVYYCAADWRAYIRRAAYSPFDYWGQGTQVTVSS,low polyreactivity
17,QVQLVESGGGLVQAGGSLRLSCAASGSTFNYYTMGWYRQEPGKETELVAAISGRVSITYYADSVKGRFTISRDNAKNTVYLQMISLKPEDTAVYYCAAGPGYVRYPRSGVWYVTLYDYWGQGSQVTVSS,high polyreactivity
18,QVQLVESGGGLVQAGGSLRLSCAASGSTFPDYAMGWYRQAPGKERELVAAISGDSDDTYYADSVKGRFTISRDNAKNTVYLQMNSLKPEDTAVYYCAARRGRAVYSVAYDYWGQATQVTVSS,high polyreactivity
19,QVQLVESGGGLVQAGGSLRLSCAASGSTFPDYAMGWYRQAPGKERELVAAISRRGVRTYYADSVKGRFTISRDNAKNTVYLQMNSLKPEDTAVYYCAAPSLLSGSDMDYWGQGTQVTVSS,high polyreactivity
20,QVQLVESGGGLVQAGGSLRLSCAASGSTFPDYAMGWYRQAPGKERELVAAISWSGGSTYYADSVKGRFTISRDNAKNTVYLQMNSLKPEDTAVYYCAAGYSPPKPYSGGYYYWGQGTQVTVSS,low polyreactivity
21,QVQLVESGGGLVQAGGSLRLSCAASGSTFPEYAMGWYRQAPGKERELVATISWSGGSTDYADSVKGRITISRDNAKNTVYLQMNSLKPEDTAVYYCNKELIPHFDTRESWGQGTQVSVSS,low polyreactivity
22,QVQLVESGGGLVQAGGSLRLSCAASGSTFPFYAMGWYRQAPGKERELVAAIPSGGSTYADSVKGRFTISRDNAKNTVYLQMNSLKPEDTAVYYCAASWPRWWRFGYWGQGTQVTVSS,low polyreactivity

row,Sequence,polyreactivity (PSR sort gate)
1,QVQLVESGGGLVQAGGSLRLSCAASGSTFPFYAMGWYRQAPGKERELVAAITSGGSTYADSVKGRFTISRDNAKNTVYLQMNSLKPEDTAVYYCAASWPRWCRFGYWGQGTQVTVSS,low polyreactivity
2,QVQLVESGGGLVQAGGSLRLSCAASGSTFPFYAMGWYRQAPGKERELVATISSDGSTNYADSVKGRFTISRDNAKNTVYLQMNSLKPEDTAVYYCNALARWWAYYDYGYWGQGTQVTVSS,low polyreactivity
3,QVQLVESGGGLVQAGGSLRLSCAASGSTFPGNAMGWYRPAPGKERELVARINDGADTNYADSVKGRFTISRDNAKNTVYLQMNSLKPEDTAVYYCAKPYYDGRTHFDSWGQGTQVTVSS,low polyreactivity
4,QVQLVESGGGLVQAGGSLRLSCAASGSTFPGNAMGWYRQAPGKEREFVAVISRSGGGTYYADSVKGRFTISRDNAKNTVYLQMNSLKPEDTAVYYCAARRGLWGYGTGNGYWGQGTQVTVSS,low polyreactivity
5,QVQLVESGGGLVQAGGSLRLSCAASGSTFPGNAMGWYRQAPGKERELVASIRRSGGSTYYADSVKGRFTISRDNAKNTVYLQMNSLKPADTAVDDCAKRTFLVSGPRSYGCYGVYYWGQGTQVTVSS,high polyreactivity
6,QVQLVESGGGLVQAGGSLRLSCAASGSTFPGNAMGWYRQAPGKERELVASIRRSGGSTYYADSVKGRFTISRDNAKNTVYLQMNSLKPEDTAVYYCAKRTFLVSGPRSYGCYGVYYWGQGTQVTVSS,high polyreactivity
7,QVQLVESGGGLVQAGGSLRLSCAASGSTFPGYAMGWYRQAPGKERELVAAGGSTYYADSVKGRFTISRDNAKNTVYFQMNSLKPEDTAGYYCAATWGSVQKGTYYYWGQGTQVTVSS,low polyreactivity
8,QVQLVESGGGLVQAGGSLRLSCAASGSTFPGYAMGWYRQAPGKERELVAAISKRGGSTRYADSVKGRFTISRDNAKNTVYLQMNSLKPEDTAVYYCNNRSQISHYRRHDYWGQGTQVTVSS,high polyreactivity
9,QVQLVESGGGLVQAGGSLRLSCAASGSTFPKYAMGWYRQAPGKERELVAAISWSGDSTYYADSVKGRFTISRDNAKNSVYLQMNSLNPEDTAVYYCAAYNFIHAGPWEYDYWGQGTQVSVSS,low polyreactivity
10,QVQLVESGGGLVQAGGSLRLSCAASGSTFPLNVMGWYRQAPGKERELVAAISSSGGRTYYADSVKGRFTISRDNAKNTVYLQMNSLKPEDTAVYYCNARWRKNLSGRVFRYDYWGQGTQVTVSS,high polyreactivity
11,QVQLVESGGGLVQAGGSLRLSCAASGSTFPLYAMGWYRQAAGKEWELVAAITSGGGNTYYADSVKGRFTISRDNAKNTVYLQMNSLKPEDTAVYYCAAVGGYKSYYSYEYDYWGQGTQETVSS,low polyreactivity
12,QVQLVESGGGLVQAGGSLRLSCAASGSTFPLYAMGWYRQAPGKEREFVAAIRWIGGSTYYADSVKGRFTISRDNAKNTVYLQMNSLKPEDTAVYYCAADYVVSAFDYWGQGTQVTVSS,low polyreactivity
13,QVQLVESGGGLVQAGGSLRLSCAASGSTFPLYVMGWYRQAPGKERELVAAIDWSGGSTYYADSVKGRFTISRDTAKNTVYLQMNSLKPEDTAVYYCAADSPNSWRMDYWGQGTQVTVSS,low polyreactivity
14,QVQLVESGGGLVQAGGSLRLSCAASGSTFPPNAMGWYRQAPGKERELVADSSDSSTYYADSVKGRFTISRDNAKNTVYLQMNSLKPEDNAVYYCAAADAGLRSKSYGQQYDYWGQGTQVTVSS,low polyreactivity
15,QVQLVESGGGLVQAGGSLRLSCAASGSTFPPNPMGWYRKATGKERELVSSIRRGGSTHYADSVKGRFTISRDNEKNTVYLQMNSLKPEDTAVYYCAKDVWRHYLNLYDYWGQGTQVTVSS,low polyreactivity
16,QVQLVESGGGLVQAGGSLRLSCAASGSTFPPYAMGWYRKATGNERELVADISSGVSTNYADSVNGRFTISRDNAKNTVYLQMHSLKPEDTAVYYCAADVYHYEWWYFSEFDYWGLGTQVTVSS,low polyreactivity
17,QVQLVESGGGLVQAGGSLRLSCAASGSTFPPYAMGWYRQAPGKERELVADITRRGASTYYADSVKGRFTISRDNAKNTDYLQMNSLKPEDTAVYYFAAGPYVGQRWYRYNYDYWGQGTQVTVSS,high polyreactivity
18,QVQLVESGGGLVQAGGSLRLSCAASGSTFPRNAMGWYRQAPGKERELVAAISYSGGRTYYADSVKGRFTISRDNAKNTVYLQMNSLKPEDTAVYYCAAQPYSHVRGKSYGYWGQGTQVTVSS,high polyreactivity
19,QVQLVESGGGLVQAGGSLRLSCAASGSTFPRYAMGWYRQAPGKERELVAAISSSGRTYYADSVKGRFTISRDNAKNTVYLQMNSLKPEDTAVYYCNAPVARGEASYYWGQGTQVTVSS,high polyreactivity
20,QVQLVESGGGLVQAGGSLRLSCAASGSTFPSYAMGWYRQAPGKERELVAAINRSGGSTYYADSVKGRFTISRDNAKNTVYLQMNSLKPEYTAVYYCATGLTTGGGYYWGQGTQVTVSS,high polyreactivity
21,QVQLVESGGGLVQAGGSLRLSCAASGSTFPSYAMGWYRQAPGKERELVAAINSGGGTNYADSVKGRFTISRDNAKNTVYLQINSLKPEDTAVFYCAKSRYDYTKTEGVYWGQGTQVTVSS,low polyreactivity
